{"source": "patent US8642559", "key": {"[1]": {"test_system": "spectrin in brain membranes"}, "[2]": {"target": "myc-mGluR1α (mGluR1α tagged with a c-myc epitope inserted in frame after Ala30) (UniProt P23385)", "sequence (P23385 other isoform, or with tags, fused parts or gaps)": "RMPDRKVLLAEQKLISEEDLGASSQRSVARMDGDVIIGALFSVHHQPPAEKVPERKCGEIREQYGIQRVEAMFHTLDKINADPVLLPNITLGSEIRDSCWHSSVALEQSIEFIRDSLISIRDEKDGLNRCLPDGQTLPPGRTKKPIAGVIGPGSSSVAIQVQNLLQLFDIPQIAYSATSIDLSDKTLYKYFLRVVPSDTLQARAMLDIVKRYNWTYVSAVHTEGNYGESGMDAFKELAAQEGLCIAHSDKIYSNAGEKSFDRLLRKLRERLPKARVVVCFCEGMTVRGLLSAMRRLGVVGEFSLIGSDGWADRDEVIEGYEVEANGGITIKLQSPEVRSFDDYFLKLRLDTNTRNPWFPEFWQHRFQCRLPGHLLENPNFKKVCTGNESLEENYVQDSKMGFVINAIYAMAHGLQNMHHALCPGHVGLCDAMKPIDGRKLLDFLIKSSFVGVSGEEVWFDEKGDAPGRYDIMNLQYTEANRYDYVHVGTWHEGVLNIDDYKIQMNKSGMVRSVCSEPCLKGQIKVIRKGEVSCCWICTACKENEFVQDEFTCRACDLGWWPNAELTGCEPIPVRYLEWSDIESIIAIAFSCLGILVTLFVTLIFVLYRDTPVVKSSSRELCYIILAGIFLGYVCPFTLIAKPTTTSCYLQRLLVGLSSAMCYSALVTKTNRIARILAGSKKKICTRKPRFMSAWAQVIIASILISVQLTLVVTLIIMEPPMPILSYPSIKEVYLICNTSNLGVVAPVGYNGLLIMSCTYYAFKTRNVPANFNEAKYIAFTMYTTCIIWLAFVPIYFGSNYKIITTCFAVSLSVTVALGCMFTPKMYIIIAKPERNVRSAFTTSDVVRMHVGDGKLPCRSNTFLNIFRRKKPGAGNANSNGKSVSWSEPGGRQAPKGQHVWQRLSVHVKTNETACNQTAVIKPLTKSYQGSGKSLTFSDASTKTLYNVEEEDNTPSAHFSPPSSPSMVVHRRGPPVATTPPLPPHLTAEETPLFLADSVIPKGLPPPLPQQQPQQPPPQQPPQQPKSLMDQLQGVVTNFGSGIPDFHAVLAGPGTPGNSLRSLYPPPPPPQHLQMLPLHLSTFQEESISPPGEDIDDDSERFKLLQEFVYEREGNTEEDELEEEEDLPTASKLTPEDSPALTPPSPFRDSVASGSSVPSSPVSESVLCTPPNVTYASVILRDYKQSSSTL"}, "[3]": {"target": "GST fusion protein with mGluR1α Asn889 to Leu1058 fused to the C-terminus of GST (UniProt P23385)", "sequence (P23385 889-1058)": "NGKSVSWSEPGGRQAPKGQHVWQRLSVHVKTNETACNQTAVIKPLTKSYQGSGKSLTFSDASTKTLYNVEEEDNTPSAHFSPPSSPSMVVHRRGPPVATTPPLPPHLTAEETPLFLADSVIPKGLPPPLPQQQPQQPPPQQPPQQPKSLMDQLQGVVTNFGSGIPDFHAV"}, "[4]": {"target": "GST fusion protein with mGluR1α Ile812 to Ser943 attached to the C-terminus of GST (UniProt P23385)", "sequence (P23385 812-943)": "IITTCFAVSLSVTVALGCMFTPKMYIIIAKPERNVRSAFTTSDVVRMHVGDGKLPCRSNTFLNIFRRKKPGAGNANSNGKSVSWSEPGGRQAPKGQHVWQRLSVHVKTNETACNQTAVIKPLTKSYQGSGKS"}}, "data": [{"substance": "µ-calpain", "values": [{"measurement": "truncation in brain membranes treated with purified calpain and calcium", "setting": "[1]", "value": "truncation of both mGluR1 and spectrin was observed"}, {"measurement": "cleavage of immunoprecipitated myc-mGluR1α by µ-calpain (30 min), silver staining and Western blots", "setting": "[2]", "value": "the density of the 145 kD band that represents the whole-length mGluR1α decreased dose-dependently with calpain treatment"}, {"measurement": "digestion of the GST fusion protein with calpain, Edman sequencing", "setting": "[3]", "value": "after digestion with calpain, this fusion protein generated a 10 kD fragment"}, {"measurement": "digestion of the purified GST fusion protein with calpain in the presence of 2 mM CaCl2", "setting": "[4]", "value": "The GST-mGluR1α fusion protein became about 2 kD smaller after digestion"}]}]}
